In PMC5714352:

System: NucT H124N (Helicobacter pylori 26695)
Test: EMSA

CAACGGCATAAAGCTTGACGATTACATTGCTAGGACATCTTTGCCCACCTGCAGGTTCACCC [substrate I (XV98, 62-mer ssDNA)]
Kd: 2 nM
